US20090099029A1, “Methods and substrates for conducting assays” (Invitrogen Corporation, priority 2005, published 2009)

B1: FES (protein)
chain: MGFSSELCSPQGHGVLQQMQEAELRLLEGMRKWMAQRVKSDREYAGLLHHMSLQDSGGQSRAISPDSPISQSWAEITSQTEGLSRLLRQHAEDLNSGPLSKLSLLIRERQQLRKTYSEQWQQLQQELTKTHSQDIEKLKSQYRALARDSAQAKRKYQEASKDKDRDKAKDKYVRSLWKLFAHHNRYVLGVRAAQLHHQHHHQLLLPGLLRSLQDLHEEMACILKEILQEYLEISSLVQDEVVAIHREMAAAAARIQPEAEYQGFLRQYGSAPDVPPCVTFDESLLEEGEPLEPGELQLNELTVESVQHTLTSVTDELAVATEMVFRRQEMVTQLQQELRNEEENTHPRERVQLLGKRQVLQEALQGLQVALCSQAKLQAQQELLQTKLEHLGPGEPPPVLLLQDDRHSTSSSEQEREGGRTPTLEILKSHISGIFRPKFSLPPPLQLIPEVQKPLHEQLWYHGAIPRAEVAELLVHSGDFLVRESQGKQEYVLSVLWDGLPRHFIIQSLDNLYRLEGEGFPSIPLLIDHLLSTQQPLTKKSGVVLHRAVPKDKWVLNHEDLVLGEQIGRGNFGEVFSGRLRADNTLVAVKSCRETLPPDLKAKFLQEARILKQYSHPNIVRLIGVCTQKQPIYIVMELVQGGDFLTFLRTEGARLRVKTLLQMVGDAAAGMEYLESKCCIHRDLAARNCLVTEKNVLKISDFGMSREEADGVYAASGGLRQVPVKWTAPEALNYGRYSSESDVWSFGILLWETFSLGASPYPNLSNQQTREFVEKGGRLPCPELCPDAVFRLMEQCWAYEPGQRPSFSTIYQELQSIRKRHR
modifications: left off: small tags and cut ends
B2: MATK(HYL) (protein)
chain: MQGHFPAERREGRPRRGTRGQQQLLVSPRFLRAWHPPPVSARMPTRRWAPGTQCITKCEHTRPKPGELAFRKGDVVTILEACENKSWYRVKHHTSGQEGLLAAGALREREALSADPKLSLMPWFHGKISGQEAVQQLQPPEDGLFLVRESARHPGDYVLCVSFGRDVIHYRVLHRDGHLTIDEAVFFCNLMDMVEHYSKDKGAICTKLVRPKRKHGTKSAEEELARAGWLLNLQHLTLGAQIGEGEFGAVLQGEYLGQKVAVKNIKCDVTAQAFLDETAVMTKMQHENLVRLLGVILHQGLYIVMEHVSKGNLVNFLRTRGRALVNTAQLLQFSLHVAEGMEYLESKKLVHRDLAARNILVSEDLVAKVSDFGLAKAERKGLDSSRLPVKWTAPEALKHGKFTSKSDVWSFGVLLWEVFSYGRAPYPKMSLKEVSEAVEKGYRMEPPEGCPGPVHVLMSSCWEAEPARRPPFRKLAEKLARELRSAGAPASVSGQDADGSTSPRSQEP
modifications: left off: small tags and cut ends
B3: ZAP70 (protein)
chain: MPDPAAHLPFFYGSISRAEAEEHLKLAGMADGLFLLRQCLRSLGGYVLSLVHDVRFHHFPIERQLNGTYAIAGGKAHCGPAELCEFYSRDPDGLPCNLRKPCNRPSGLEPQPGVFDCLRDAMVRDYVRQTWKLEGEALEQAIISQAPQVEKLIATTAHERMPWYHSSLTREEAERKLYSGAQTDGKFLLRPRKEQGTYALSLIYGKTVYHYLISQDKAGKYCIPEGTKFDTLWQLVEYLKLKADGLIYCLKEACPNSSASNASGAAAPTLPAHPSTLTHPQRRIDTLNSDGYTPEPARITSPDKPRPMPMDTSVYESPYSDPEELKDKKLFLKRDNLLIADIELGCGNFGSVRQGVYRMRKKQIDVAIKVLKQGTEKADTEEMMREAQIMHQLDNPYIVRLIGVCQAEALMLVMEMAGGGPLHKFLVGKREEIPVSNVAELLHQVSMGMKYLEEKNFVHRDLAARNVLLVNRHYAKISDFGLSKALGADDSYYTARSAGKWPLKWYAPECINFRKFSSRSDVWSYGVTMWEALSYGQKPYKKMKGPEVMAFIEQGKRMECPPECPPELYALMSDCWIYKWEDRPDFLTVEQRMRACYYSLASKVEGPPGSTQKAEAACA
modifications: left off: small tags and cut ends
B4: TEC (protein)
chain: MNFNTILEEILIKRSQQKKKTSPLNYKERLFVLTKSMLTYYEGRAEKKYRKGFIDVSKIKCVEIVKNDDGVIPCQNKYPFQVVHDANTLYIFAPSPQSRDLWVKKLKEEIKNNNNIMIKYHPKFWTDGSYQCCRQTEKLAPGCEKYNLFESSIRKALPPAPETKKRRPPPPIPLEEEDNSEEIVVAMYDFQAAEGHDLRLERGQEYLILEKNDVHWWRARDKYGNEGYIPSNYVTGKKSNNLDQYEWYCRNMNRSKAEQLLRSEDKEGGFMVRDSSQPGLYTVSLYTKFGGEGSSGFRHYHIKETTTSPKKYYLAEKHAFGSIPEIIEYHKHNAAGLVTRLRYPVSVKGKNAPTTAGFSYEKWEINPSELTFMRELGSGLFGVVRLGKWRAQYKVAIKAIREGAMCEEDFIEEAKVMMKLTHPKLVQLYGVCTQQKPIYIVTEFMERGCLLNFLRQRQGHFSRDVLLSMCQDVCEGMEYLERNSFIHRDLAARNCLVSEAGVVKVSDFGMARYVLDDQYTSSSGAKFPVKWCPPEVFNYSRFSSKSDVWSFGVLMWEVFTEGRMPFEKYTNYEVVTMVTRGHRLYQPKLASNYVYEVMLRCWQEKPEGRPSFEDLLRTIDELVECEETFGR
modifications: left off: small tags and cut ends
B5: JAK3 (protein)
chain: ISSDYELLSDPTPGALAPRDGLWNGAQLYACQDPTIFEERHLKYISQLGKGNFGSVELCRYDPLGDNTGALVAVKQLQHSGPDQQRDFQREIQILKALHSDFIVKYRGVSYGPGRQSLRLVMEYLPSGCLRDFLQRHRARLDASRLLLYSSQICKGMEYLGSRRCVHRDLAARNILVESEAHVKIADFGLAKLLPLDKDYYVVREPGQSPIFWYAPESLSDNIFSRQSDVWSFGVVLYELFTYCDKSCSPSAEFLRMMGCERDVPALCRLLELLEEGQRLPAPPACPAEVHELMKLCWAPSPQDRPSFSALGPQLDMLWSGSRGCETHAFTAHPEGKHHSLSFS
modifications: left off: a dimerising Fc or GST
B6: CSK (protein)
chain: MSAIQAAWPSGTECIAKYNFHGTAEQDLPFCKGDVLTIVAVTKDPNWYKAKNKVGREGIIPANYVQKREGVKAGTKLSLMPWFHGKITREQAERLLYPPETGLFLVRESTNYPGDYTLCVSCDGKVEHYRIMYHASKLSIDEEVYFENLMQLVEHYTSDADGLCTRLIKPKVMEGTVAAQDEFYRSGWALNMKELKLLQTIGKGEFGDVMLGDYRGNKVAVKCIKNDATAQAFLAEASVMTQLRHSNLVQLLGVIVEEKGGLYIVTEYMAKGSLVDYLRSRGRSVLGGDCLLKFSLDVCEAMEYLEGNNFVHRDLAARNVLVSEDNVAKVSDFGLTKEASSTQDTGKLPVKWTAPEALREKKFSTKSDVWSFGILLWEIYSFGRVPYPRIPLKDVVPRVEKGYKMDAPDGCPPAVYEVMKNCWHLDAAMRPSFLQLREQLEHIKTHELHL
modifications: left off: small tags and cut ends
B7: FER (protein)
chain: KSGVVLLNPIPKDKKWILSHEDVILGELLGKGNFGEVYKGTLKDKTSVAVKTCKEDLPQELKIKFLQEAKILKQYDHPNIVKLIGVCTQRQPVYIIMELVSGGDFLTFLRRKKDELKLKQLVKFSLDAAAGMLYLESKNCIHRDLAARNCLVGENNVLKISDFGMSRQEDGGVYSSSGLKQIPIKWTAPEALNYGRYSSESDVWSFGILLWETFSLGVCPYPGMTNQQAREQVERGYRMSAPQHCPEDISKIMMKCWDYKPENRPKFSELQKELTIIKRKLT
modifications: left off: a dimerising Fc or GST
B8: PTK2(FAK) (protein)
chain: MAAAYLDPNLNHTPNSSTKTHLGTGMERSPGAMERVLKVFHYFESNSEPTTWASIIRHGDATDVRGIIQKIVDSHKVKHVACYGFRLSHLRSEEVHWLHVDMGVSSVREKYELAHPPEEWKYELRIRYLPKGFLNQFTEDKPTLNFFYQQVKSDYMLEIADQVDQEIALKLGCLEIRRSYWEMRGNALEKKSNYEVLEKDVGLKRFFPKSLLDSVKAKTLRKLIQQTFRQFANLNREESILKFFEILSPVYRFDKECFKCALGSSWIISVELAIGPEEGISYLTDKGCNPTHLADFTQVQTIQYSNSEDKDRKGMLQLKIAGAPEPLTVTAPSLTIAENMADLIDGYCRLVNGTSQSFIIRPQKEGERALPSIPKLANSEKQGMRTHAVSVSETDDYAEIIDEEDTYTMPSTRDYEIQRERIELGRCIGEGQFGDVHQGIYMSPENPALAVAIKTCKNCTSDSVREKFLQEALTMRQFDHPHIVKLIGVITENPVWIIMELCTLGELRSFLQVRKYSLDLASLILYAYQLSTALAYLESKRFVHRDIAARNVLVSSNDCVKLGDFGLSRYMEDSTYYKASKGKLPIKWMAPESINFRRFTSASDVWMFGVCMWEILMHGVKPFQGVKNNDVIGRIENGERLPMPPNCPPTLYSLMTKCWAYDPSRRPRFTELKAQLSTILEEEKAQQEERMRMESRRQATVSWDSGGSDEAPPKPSRPGYPSPRSSEGFYPSPQHMVQTNHYQVSGYPGSHGITAMAGSIYPGQASLLDQTDSWNHRPQEIAMWQPNVEDSTVLDLRGIGQVLPTHLMEERLIRQQQEMEEDQRWLEKEERFLKPDVRLSRGSIDREDGSLQGPIGNQHIYQPVGKPDPAAPPKKPPRPGAPGHLGSLASLSSPADSYNEGVKLQPQEISPPPTANLDRSNDKVYENVTGLVKAVIEMSSKIQPAPPEEYVPMVKEVGLALRTLLATVDETIPLLPASTHREIEMAQKLLNSDLGELINKMKLAQQYVMTSLQQEYKKQMLTAAHALAVDAKNLLDVIDQARLKMLGQTRPH
modifications: left off: a dimerising Fc or GST
B9: ADRBK2(GRK3) (protein, UniProt P35626 1-688, looked up)
G protein-coupled receptor …: MADLEAVLADVSYLMAMEKSKATPAARASKRIVLPEPSIRSVMQKYLAERNEITFDKIFNQKIGFLLFKDFCLNEINEAVPQVKFYEEIKEYEKLDNEEDRLCRSRQIYDAYIMKELLSCSHPFSKQAVEHVQSHLSKKQVTSTLFQPYIEEICESLRGDIFQKFMESDKFTRFCQWKNVELNIHLTMNEFSVHRIIGRGGFGEVYGCRKADTGKMYAMKCLDKKRIKMKQGETLALNERIMLSLVSTGDCPFIVCMTYAFHTPDKLCFILDLMNGGDLHYHLSQHGVFSEKEMRFYATEIILGLEHMHNRFVVYRDLKPANILLDEHGHARISDLGLACDFSKKKPHASVGTHGYMAPEVLQKGTAYDSSADWFSLGCMLFKLLRGHSPFRQHKTKDKHEIDRMTLTVNVELPDTFSPELKSLLEGLLQRDVSKRLGCHGGGSQEVKEHSFFKGVDWQHVYLQKYPPPLIPPRGEVNAADAFDIGSFDEEDTKGIKLLDCDQELYKNFPLVISERWQQEVTETVYEAVNADTDKIEARKRAKNKQLGHEEDYALGKDCIMHGYMLKLGNPFLTQWQRRYFYLFPNRLEWRGEGESRQNLLTMEQILSVEETQIKDKKCILFRIKGGKQFVLQCESDPEFVQWKKELNETFKEAQRLLRRAPKFLNKPRSGTVELPKPSLCHRNSNGL

Test system: kinases of Table 6 on Myelin Basic Protein (MBP)
Assay: Kinase assay using MBP substrate, ProQ Diamond stain (Table 6)
Assay type: biochemical
Conditions: kinase printed on MBP-coated slide; 20 uM ATP, 30° C.; ProQ Diamond Microarray Stain; graded Strong/Weak/Negative
Summary of the method: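 Reactions ran at 30° C. with 20 uM ATP, 4 mM MgCl2 and 5% DMSO in HEPES pH 7.5, inhibitor added or omitted. Kinases had been arrayed onto slide-bound dephosphorylated bovine MBP; phospho-signal read after ProQ Diamond staining.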

Molecule	MBP Kinase Activity
B1	Negative
B2	Negative
B3	Negative
B4	Negative
B5	Strong
B6	Negative
B7	Negative
B8	Negative
B9	Negative
